Results: publication PMC10411902 (Science Advances, 2023)

Biological target: T1, BRCA1-associated protein 1 (BAP1), full-length human (residues 1 to 729) (human, UniProt Q92560 1-729)
T1 sequence: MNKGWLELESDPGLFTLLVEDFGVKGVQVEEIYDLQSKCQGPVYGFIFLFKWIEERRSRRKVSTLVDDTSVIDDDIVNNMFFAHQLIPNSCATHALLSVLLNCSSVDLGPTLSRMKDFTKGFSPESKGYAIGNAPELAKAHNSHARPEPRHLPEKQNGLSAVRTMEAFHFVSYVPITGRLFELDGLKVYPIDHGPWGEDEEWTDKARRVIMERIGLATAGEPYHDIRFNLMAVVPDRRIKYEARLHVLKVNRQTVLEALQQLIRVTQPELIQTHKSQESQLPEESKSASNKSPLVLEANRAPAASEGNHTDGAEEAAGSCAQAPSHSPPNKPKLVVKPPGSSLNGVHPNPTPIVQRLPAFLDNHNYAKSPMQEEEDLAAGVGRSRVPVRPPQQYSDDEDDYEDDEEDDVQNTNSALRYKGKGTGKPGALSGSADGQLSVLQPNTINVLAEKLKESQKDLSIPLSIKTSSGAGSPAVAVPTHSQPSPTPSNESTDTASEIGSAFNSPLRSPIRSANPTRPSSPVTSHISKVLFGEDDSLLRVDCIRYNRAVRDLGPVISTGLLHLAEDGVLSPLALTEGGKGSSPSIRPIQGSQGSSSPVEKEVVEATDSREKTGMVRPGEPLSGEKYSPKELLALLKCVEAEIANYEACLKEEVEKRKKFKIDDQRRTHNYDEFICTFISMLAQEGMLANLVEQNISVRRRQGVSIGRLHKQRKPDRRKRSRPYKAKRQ
Test: cryo-EM structure

B1: Deubiquitinase adaptor domain (DEUBAD) of additional sex comb-like 1 (ASXL1), residues 237 to 390 (domain or fragment)
chain: PATGQMKRNRGEEIDFETPGSILVNTNLRALINSRTFHALPSHFQQQLLFLLPEVDRQVGTDGLLRLSSSALNNEFFTHAAQSWRERLADGEFTHEMQVRIRQEMEKEKKVEQWKEKFFEDYYGQKLGLTKEESLQQNVGQEEAEIKSGLCVPG
- binding result: binds
